Test results from patent US20250163146A1 (H LEE MOFFITT CANCER CENTER AND RESEARCH INSTITUTE, published 2025).

B1: nanobody clone A7 (VHH)
VHH: QVQLQESGGGLVQAGGSLRLSCAASGNIFYTYSMGWYRQAPGKEREFVAAISAGTITYYADSVKGRFTISRDNAKNTVYLQMNSLKPEDTAVYYCAVFAPRDVIHYYWGQGTQVTVSS
B2: nanobody clone A8 (VHH)
VHH: QVQLQESGGGLVQAGGSLRLSCAASGTIFEERVMGWYRQAPGKEREFVAGIASGAITYYADSVKGRFTISRDNAKNTVYLQMNSLKPEDTAVYYCAAQGYSFKTKPDYSAYVLVYWGQGTQVTVSS
B3: nanobody clone A9 (VHH)
VHH: QVQLQESGGGLVQAGGSLRLSCAASGTISQDSGMGWYRQAPGKEREFVAGITAGSITYYADSVKGRFTISRDNAKNTVYLQMNSLKPEDTAVYYCAASYVSVQAHTYWGQGTQVTVSS
B4: nanobody clone B1 (VHH)
VHH: QVQLQESGGGLVQAGGSLRLSCAASGTIFYSSDMGWYRQAPGKEREFVAGINRGSTTYYADSVKGRFTISRDNAKNTVYLQMNSLKPEDTAVYYCAVVSDVLTRLFYWGQGTQVTVSS
B5: nanobody clone B4 (VHH)
VHH: QVQLQESGGGLVQAGGSLRLSCAASGNISVWIPMGWYRQAPGKEREFVASIGEGSTTYYADSVKGRFTISRDNAKNTVYLQMNSLKPEDTAVYYCAVPYYGHSDYDYWGQGTQVTVSS
B6: nanobody clone C2 (VHH)
VHH: QVQLQESGGGLVQAGGSLRLSCAASGSISVVYGMGWYRQAPGKEREFVAGISYGGSTYYADSVKGRFTISRDNAKNTVYLQMNSLKPEDTAVYYCAVDASYWDTLVYWGQGTQVTVSS
B7: nanobody clone C4 (VHH)
VHH: QVQLQESGGGLVQAGGSLRLSCAASGSISGDVEMGWYRQAPGKEREFVAGINDGGNTYYADSVKGRFTISRDNAKNTVYLQMNSLKPEDTAVYYCAVSTTYPSYNESQYADWLAYWGQGTQVTVSS
B8: nanobody clone C5 (VHH)
VHH: QVQLQESGGGLVQAGGSLRLSCAASGNISTGTAMGWYRQAPGKEREFVAGIAYGATTYYADSVKGRFTISRDNAKNTVYLQMNSLKPEDTAVYYCAVEVSQSTPGGRYSVAYLIYWGQGTQVTVSS

Legend:
[1] = target: T1, biotinylated murine DLL4 protein, truncation containing the C2, DSL, and EGF1-3 domains (DLL4 (N-EGF3)) (mouse, UniProt Q9JI71 27-324, limits assumed, biotinylated (site not stated)); assay: yeast display, biotinylated mDLL4 + SA-647, flow cytometry
T1 construct: domain: C2, DSL, and EGF1-3 domains (N-EGF3); also called mDLL4; mouse DLL4
Experimental: (§1) 162. To isolate binding molecules that interrupted the interaction of DLL4 and Notch1, we performed several rounds of selection using decreasing concentrations of biotinylated murine DLL4 protein. The mDLL4 protein was a truncation that contained the C2, DSL, and EGF1-3 domains (DLL4 (N-EGF3)). To perform a selection, the library was stained with biotinylated mDLL4, washed, incubated with streptavidin-647, washed, and then binders isolated selected using either (a) magnetic beads coated with an anti-647 antibody or (b) FACS. The mDLL4-binding yeast were then plated so that individual colonies could be picked and cultured to isolate individual clones. The clones were then each stained with mDLL4 and SA-647 and analyzed by flow cytometry to confirm that they bound to mDLL4. (FIG. 1).

human DLL4 (N-EGF3) [2] = target: T2, human DLL4 (N-EGF3) (human, UniProt Q9NR61 27-323, limits assumed, biotinylated (site not stated); used unlabeled in the complex with biotinylated hNotch1 (6-13)); assay: yeast display, biotinylated human DLL4 (N-EGF3) + SA-647, flow cytometry
T2 construct: domain: N-EGF3; also called hDLL4; hDLL4 (N-3)
Experimental: (§2) The eight anti-DLL4 nanobody clones were then tested for cross-reactivity between human and mouse DLL4. Yeast cells expressing each nanobody were stained with biotinylated human DLL4 (N-EGF3), washed, stained with SA-647, and then analyzed by flow cytometry.

[3] = target: T1, biotinylated murine DLL4 protein, …; assay: yeast display, flow cytometry (FIG. 1)
Experimental: as §1

human DLL4 (N-EGF3) [4] = target: T2, human DLL4 (N-EGF3); assay: yeast display, biotinylated human DLL4 (N-EGF3), SA-647, flow cytometry
Experimental: as §2

[5] = target: T3, human DLL4 (N-terminus to EGF5) (human, UniProt Q9NR61 27-401, limits assumed, biotinylated in the flow cytometry titration (site not stated); not stated for the plate-coated protein); assay: nanobody incubated with increasing concentrations of biotinylated human DLL4 (N-terminus to EGF5), streptavidin Alexa Fluor 647, flow cytometry
T3 construct: domain: N-terminus to EGF5 (C2, DSL, and EGF1-5 domains); also called recombinant human DLL4 protein containing the C2, DSL, and EGF1-5 domains
Experimental: 166. To determine the ability of the C4 and C5 nanobodies to bind DLL4, C4 and C5 nanobodies were incubated with increasing concentrations of biotinylated human DLL4 (N-terminus to EGF5) and binding was detected using streptavidin labeled with Alexa Fluor 647. Fluorescence was then monitored by flow cytometry and EC50 values were calculated for each nanobody (FIG. 5).

T2 sequence (Q9NR61 27-323 limits assumed): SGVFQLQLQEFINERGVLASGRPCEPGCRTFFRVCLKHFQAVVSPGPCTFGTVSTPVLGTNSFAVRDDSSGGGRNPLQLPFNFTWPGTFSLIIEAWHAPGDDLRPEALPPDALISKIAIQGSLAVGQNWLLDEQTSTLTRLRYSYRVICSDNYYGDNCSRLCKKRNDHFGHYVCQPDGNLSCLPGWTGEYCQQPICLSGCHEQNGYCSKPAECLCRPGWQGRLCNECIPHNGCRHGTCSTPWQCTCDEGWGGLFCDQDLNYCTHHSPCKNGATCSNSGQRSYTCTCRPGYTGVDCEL
T1 sequence (Q9JI71 27-324 limits assumed): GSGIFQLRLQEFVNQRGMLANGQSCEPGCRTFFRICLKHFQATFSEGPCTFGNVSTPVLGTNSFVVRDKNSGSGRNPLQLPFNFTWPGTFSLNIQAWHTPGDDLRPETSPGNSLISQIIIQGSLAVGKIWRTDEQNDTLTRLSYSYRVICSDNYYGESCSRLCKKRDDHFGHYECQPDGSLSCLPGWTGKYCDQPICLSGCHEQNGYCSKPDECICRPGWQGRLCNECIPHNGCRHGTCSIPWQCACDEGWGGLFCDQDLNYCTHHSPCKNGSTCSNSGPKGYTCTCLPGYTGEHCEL
T3 sequence (Q9NR61 27-401 limits assumed): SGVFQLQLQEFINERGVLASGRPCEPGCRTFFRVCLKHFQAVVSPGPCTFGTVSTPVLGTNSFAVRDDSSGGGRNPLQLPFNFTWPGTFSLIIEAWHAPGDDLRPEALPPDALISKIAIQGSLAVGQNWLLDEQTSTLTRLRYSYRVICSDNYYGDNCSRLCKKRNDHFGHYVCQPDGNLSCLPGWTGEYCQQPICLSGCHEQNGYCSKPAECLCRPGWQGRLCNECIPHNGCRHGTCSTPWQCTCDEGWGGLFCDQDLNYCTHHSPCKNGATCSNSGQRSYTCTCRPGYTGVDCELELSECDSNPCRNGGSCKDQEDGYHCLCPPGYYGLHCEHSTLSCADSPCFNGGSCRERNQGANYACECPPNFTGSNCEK

Binder | binding result [1] | binding result (human DLL4 (N-EGF3) [2]) | binding result [3] | binding result (human DLL4 (N-EGF3) [4]) | binding result [5]
B1 | binds | binds | – | – | –
B2 | – | – | binds | no binding | –
B3 | – | – | binds | no binding | –
B4 | – | binds | binds | – | –
B5 | – | – | binds | no binding | –
B6 | – | – | binds | no binding | –
B7 | – | binds | binds | – | binds
B8 | – | binds | binds | – | binds
